T1: IL-18 receptor (IL-18Rα/IL-18Rβ) overexpressed on HEK-Blue IL-18 cells (Homo sapiens (Human), UniProt Q13478 19-541; O95256 20-599)
T1 sequence 1: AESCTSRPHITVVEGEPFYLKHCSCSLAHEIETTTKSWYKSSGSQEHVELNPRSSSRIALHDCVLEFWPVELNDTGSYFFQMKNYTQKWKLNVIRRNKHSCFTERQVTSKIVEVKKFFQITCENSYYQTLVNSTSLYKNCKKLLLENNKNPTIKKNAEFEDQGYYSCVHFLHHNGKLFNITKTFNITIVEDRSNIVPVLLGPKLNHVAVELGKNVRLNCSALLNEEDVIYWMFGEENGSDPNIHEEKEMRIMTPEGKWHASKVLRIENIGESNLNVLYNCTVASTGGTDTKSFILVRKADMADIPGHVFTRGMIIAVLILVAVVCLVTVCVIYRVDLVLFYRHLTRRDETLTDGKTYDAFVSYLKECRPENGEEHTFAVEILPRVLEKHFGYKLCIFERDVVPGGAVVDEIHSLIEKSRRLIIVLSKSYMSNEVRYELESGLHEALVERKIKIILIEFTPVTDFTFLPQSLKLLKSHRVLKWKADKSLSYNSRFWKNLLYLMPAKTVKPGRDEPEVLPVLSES
T1 sequence 2: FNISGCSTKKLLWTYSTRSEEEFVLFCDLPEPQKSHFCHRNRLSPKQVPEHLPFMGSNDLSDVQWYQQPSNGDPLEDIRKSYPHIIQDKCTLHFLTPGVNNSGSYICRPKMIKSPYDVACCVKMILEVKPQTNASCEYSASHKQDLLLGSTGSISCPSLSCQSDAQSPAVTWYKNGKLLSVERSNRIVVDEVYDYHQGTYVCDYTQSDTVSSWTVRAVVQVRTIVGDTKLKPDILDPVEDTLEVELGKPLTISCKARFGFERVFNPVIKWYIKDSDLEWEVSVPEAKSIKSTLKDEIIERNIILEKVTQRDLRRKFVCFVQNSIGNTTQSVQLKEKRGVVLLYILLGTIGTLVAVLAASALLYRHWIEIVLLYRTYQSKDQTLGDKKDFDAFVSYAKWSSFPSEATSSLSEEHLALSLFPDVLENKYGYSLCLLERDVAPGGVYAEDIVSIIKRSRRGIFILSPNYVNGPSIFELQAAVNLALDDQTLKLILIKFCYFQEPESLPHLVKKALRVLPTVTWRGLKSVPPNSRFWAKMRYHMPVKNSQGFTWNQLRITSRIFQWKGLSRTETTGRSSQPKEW


target: T1, IL-18 receptor (IL-18Rα/IL-18Rβ) …; test: cell-based or functional assay

Binder	HEK-Blue IL-18: Abs 405 [Abs]	HEK-Blue IL-18: Fold over Background [fold]
DGL319 (bispecific antibody, V domains shown) V domain 1: EVQLVESGGGLVQPGGSLRLSCAASGSIFSINAMGWYRQAPGKQREVVATSTGGGMTNYADSVKGRFTISRDNAKNTVYLQMNSLKPEDTAVYYCNADKDPFFPGDYWGQGTQVTVSS V domain 2: QLQLVESGGGLVQAGGSLRLSCAASRSITFSHNVMGWYRQAPGKQRELVASIGSGGSTNYVDSVKGRATISRDNAKKTVYLQMNSLKPEDTAVYYCGVVVGVYRGSLGQGTQVTVSS	2.88	12.5
DGL320 (bispecific antibody, V domains shown) V domain 1: QVQLQESGGGLVQPGGSLRLSCAASGSIFSTKGLGWYRQAPGEQRELVAGISSAGWIFYTQSVKGRFTMSRDNAKNTVYLQMNSLKPEDTAVYYCNSAQSGVPLRSWGQGTQVTVAS V domain 2: QLQLVESGGGLVQAGGSLRLSCAASRSITFSHNVMGWYRQAPGKQRELVASIGSGGSTNYVDSVKGRATISRDNAKKTVYLQMNSLKPEDTAVYYCGVVVGVYRGSLGQGTQVTVSS	2.36	10.3
DGL321 (bispecific antibody, V domains shown) V domain 1: QVQLQESGGGLVQPGGSARLSCVASGIIFNDYHMGWYRQAPGKQRDLVAGITAGGSTTYADSVKGRFTISRDNAKHTVYLQMNNLSPEDTAVYYCNTFYNAILDWGKGTLVTVSS V domain 2: QLQLVESGGGLVQAGGSLRLSCAASRSITFSHNVMGWYRQAPGKQRELVASIGSGGSTNYVDSVKGRATISRDNAKKTVYLQMNSLKPEDTAVYYCGVVVGVYRGSLGQGTQVTVSS	0.38	1.7
DGL322 (bispecific antibody, V domains shown) V domain 1: QVQLVESGGGLVQAGGSLRLSCAASGRTFSSYTMGWFRQAPGKEREFVAAISWSAGRTYYADSVKGRFTISRDNAKNTVYLQMNSLKPEDTAVYFCAAEEAPDWAPIDCSGYGCLSLYDYWGQGTQVTVSS V domain 2: QLQLVESGGGLVQAGGSLRLSCAASRSITFSHNVMGWYRQAPGKQRELVASIGSGGSTNYVDSVKGRATISRDNAKKTVYLQMNSLKPEDTAVYYCGVVVGVYRGSLGQGTQVTVSS	0.74	3.2

Now from value to binder:

HEK-Blue IL-18: Abs 405 [Abs]	HEK-Blue IL-18: Fold over Background [fold]	Binder
2.23	9.7	DGL318 (bispecific antibody, V domains shown) V domain 1: QVQLVESGGGLVQAGGSLRLSCAASGRTFSSYDMGWFRQAPGKEREFVAALRWSGGSTSYADSVKGRFTISRDNAKNTVYLHMNSLKPEDTAVYYCAATLETDSGTYWADYWGQGTQVTVSS V domain 2: QLQLVESGGGLVQAGGSLRLSCAASRSITFSHNVMGWYRQAPGKQRELVASIGSGGSTNYVDSVKGRATISRDNAKKTVYLQMNSLKPEDTAVYYCGVVVGVYRGSLGQGTQVTVSS
0.42	1.8	DGL323 (bispecific antibody, V domains shown) V domain 1: QVQLQESGGGLVQPGGSLRLSCAASGFIFSNWYMRWVRQAPGEGLEWVSSINSGGDDTDYADSVKGRFTISRDNAKGTLYLQMHSLKPEDTALYYCERGADRVRGQGTQVTVSS V domain 2: QLQLVESGGGLVQAGGSLRLSCAASRSITFSHNVMGWYRQAPGKQRELVASIGSGGSTNYVDSVKGRATISRDNAKKTVYLQMNSLKPEDTAVYYCGVVVGVYRGSLGQGTQVTVSS

target: T1, IL-18 receptor (IL-18Rα/IL-18Rβ) …; test: cell-based or functional assay; remark: another data set of the same source

Binder	HEK-Blue IL-18: Abs405 (Emax) [Abs]	HEK-Blue IL-18: EC50 [nM]
DGL061 (bispecific antibody, V domains shown) V domain 1: QVQLQESGGGLVQPGGSLRLSCAASGNIFRATGMGWYRQAPGKWRELVARISSTGSPNYVDFVKGRFTISRDNAKNTLYLQMNSLKPDDTAVYYCNTVGTTLFAWGQGTQVTVSS V domain 2: QVQLQESGGGLVQPGGSLGLSCAASGIKISVNSMAWYRQAPGERREMVAVISSGGSAVYADSVKGRFTISRDNAKNMVYLQMNSLKPEDTAVYYCHPGSAAYRDYWGQGTQVTVSS	0.47	0.0063
DGL063 (bispecific antibody, V domains shown) V domain 1: QLQLVESGGGLVQPGGSLRLSCAASGKIFSINIMDWYRQAPGKERELVARISPGDIITYANDVKGRFTISRNNAKNTVYLQMNSLKPEDTAVYYCRWRQGAGDYWGRGTQVTVSS V domain 2: QVQLQESGGGLVQPGGSLGLSCAASGIKISVNSMAWYRQAPGERREMVAVISSGGSAVYADSVKGRFTISRDNAKNMVYLQMNSLKPEDTAVYYCHPGSAAYRDYWGQGTQVTVSS	0.6	0.014
DGL075 (bispecific antibody, V domains shown) V domain 1: EVQLVESGGGLVQPGGSLRLSCAASGSIFSINAMGWYRQAPGKQREVVATSTGGGMTNYADSVKGRFTISRDNAKNTVYLQMNSLKPEDTAVYYCNADKDPFFPGDYWGQGTQVTVSS V domain 2: EVQLVESGGGVAQAGGSLRLSCAASITSFSLNTMGYYRQLPGKQRELVAVESSSGITNYADSVKGRFTISRDGAKNTVFLQMNSLTPEDTAVYYCGGKLFGRDFWGQGTQVTVSS	0.81	0.028
DGL076 (bispecific antibody, V domains shown) V domain 1: QVQLQESGGGLVQPGGSLRLSCAASGNIFRATGMGWYRQAPGKWRELVARISSTGSPNYVDFVKGRFTISRDNAKNTLYLQMNSLKPDDTAVYYCNTVGTTLFAWGQGTQVTVSS V domain 2: EVQLVESGGGVAQAGGSLRLSCAASITSFSLNTMGYYRQLPGKQRELVAVESSSGITNYADSVKGRFTISRDGAKNTVFLQMNSLTPEDTAVYYCGGKLFGRDFWGQGTQVTVSS	0.49	0.0066
DGL077 (bispecific antibody, V domains shown) V domain 1: QVQLQESGGGLVQPGGSLRLSCAASGSIFSTKGLGWYRQAPGEQRELVAGISSAGWIFYTQSVKGRFTMSRDNAKNTVYLQMNSLKPEDTAVYYCNSAQSGVPLRSWGQGTQVTVAS V domain 2: EVQLVESGGGVAQAGGSLRLSCAASITSFSLNTMGYYRQLPGKQRELVAVESSSGITNYADSVKGRFTISRDGAKNTVFLQMNSLTPEDTAVYYCGGKLFGRDFWGQGTQVTVSS	0.6	0.0054
DGL078 (bispecific antibody, V domains shown) V domain 1: QVQLQESGGGLVQAGGSLRLSCIVSGSIVRIDFMGWYRQAPGKKRDMVATITTGGSTNYADSVKDRFTISRDNAKNTLSLQVNDLKPEDTAVYYCNSVVHTTSRPPVLYWGQGTQVTVSS V domain 2: EVQLVESGGGVAQAGGSLRLSCAASITSFSLNTMGYYRQLPGKQRELVAVESSSGITNYADSVKGRFTISRDGAKNTVFLQMNSLTPEDTAVYYCGGKLFGRDFWGQGTQVTVSS	0.65	0.024

Further lines, results first:

HEK-Blue IL-18: Abs405 (Emax) [Abs]	HEK-Blue IL-18: EC50 [nM]	Binder
1.03	0.0041	DGL052 (bispecific antibody, V domains shown) V domain 1: QVQLQESGGGLVQPGGSLRLSCAASGFIFSNWYMRWVRQAPGEGLEWVSSINSGGDDTDYADSVKGRFTISRDNAKGTLYLQMHSLKPEDTALYYCERGADRVRGQGTQVTVSS V domain 2: QVQLVESGGDLVLPGGSLKLSCEASGSISSRNSMAWYRRAPGKQRELVAAISSISSGGRTDYADFVKGRFTIFRDTAKNMVYLQMNNLKPEDTAVYDCDDPIRVASLAYDDWGQGTQVTVSS
0.6	0.028	DGL060 (bispecific antibody, V domains shown) V domain 1: EVQLVESGGGLVQPGGSLRLSCAASGSIFSINAMGWYRQAPGKQREVVATSTGGGMTNYADSVKGRFTISRDNAKNTVYLQMNSLKPEDTAVYYCNADKDPFFPGDYWGQGTQVTVSS V domain 2: QVQLQESGGGLVQPGGSLGLSCAASGIKISVNSMAWYRQAPGERREMVAVISSGGSAVYADSVKGRFTISRDNAKNMVYLQMNSLKPEDTAVYYCHPGSAAYRDYWGQGTQVTVSS
0.88	0.0034	DGL062 (bispecific antibody, V domains shown) V domain 1: QVQLQESGGGLVQPGGSLRLSCAASGSIFSTKGLGWYRQAPGEQRELVAGISSAGWIFYTQSVKGRFTMSRDNAKNTVYLQMNSLKPEDTAVYYCNSAQSGVPLRSWGQGTQVTVAS V domain 2: QVQLQESGGGLVQPGGSLGLSCAASGIKISVNSMAWYRQAPGERREMVAVISSGGSAVYADSVKGRFTISRDNAKNMVYLQMNSLKPEDTAVYYCHPGSAAYRDYWGQGTQVTVSS
0.36	0.018	DGL068 (bispecific antibody, V domains shown) V domain 1: EVQLVESGGGLVQPGGSLRLSCAASGSIFSINAMGWYRQAPGKQREVVATSTGGGMTNYADSVKGRFTISRDNAKNTVYLQMNSLKPEDTAVYYCNADKDPFFPGDYWGQGTQVTVSS V domain 2: QVQLVESGGGLVQAGGSLRLSCVASGTFFQIHVMGWYRQAPGKQRELVAFIINNGGTRYADSVKGRFTISRDYAKNTVYLQMNSLKPEDTAVYYCNTEGTYRGRYSTDNWGQGTQVTVSS

Reference: patent US20240209100A1 (DIAGONAL THERAPEUTICS, published 2024)
